Experimental findings from US20080056997A1 are described below.

The target in the assay is human domain D of tenascin C (TnC-D) (human) (UniProt P24821). In words: method not stated in the sentence (ELISA-positive clone, further characterization). In general terms: An ELISA detects its analyte on a solid surface through an enzyme-linked reagent.
Sequence of UniProt P24821 (P24821 1622-1711): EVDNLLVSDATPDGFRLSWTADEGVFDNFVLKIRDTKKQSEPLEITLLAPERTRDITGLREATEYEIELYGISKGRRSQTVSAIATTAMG

B1: scFv(P12) (scFv, part only; not given: VH-VL peptide linker, part only)
scFv, part: EVQLVESGGGLVQPGGSLRLSCAASGFTFGQYSMSWVRQAPGKGLEWVSAITGTGGETYYADSVEGRFTISRDNSKNTLYLQMNSLRAEDTAVYYCAKGRRIFDYWGQGTLVTVSRSSELTQDPAVSVALGQTVRITCQGDSLRRQPASWYQQKPGQAPVLVIYYKKLRPSGIPDRFSGSSSGNTASLTITGAQAEDEADYYCNSFSPKPKPVVFGGGTKLTVLG
B1 showed a factor of affinity improvement compared to scFv(D11) of 4.8 fold.
